Reference: patent US20090214583A1 (GOVERNMENT OF THE UNITED STATES OF AMERICA AS REPRESENTED …, published 2009)

Target: HLA-DRβ1*13 (human)
Assay: cell-based or functional assay

KQIINMWQEIGKAMYA [Peptide 53]
proliferation of KT9 cells: ≤ 2 fold
